Results published in a protein production outcome set (Wang et al. 2014).

assay: label from the status in PepcDB records

Question: Which protein production does the source give for “MDGSPARPVPLVPDAAPAAPGRGRLAALTLLTLGFFAANSLLARAALRPGLADPATFTAIRLASGAAALGGLALASRRARPRGGSAGSALALFAYAAAFSLAYRRIDAGPGAFLLFFAVQASMIGWSVLRGARPTRRQWAGLAVALAGLGWLTLPGAHAPDARGAALMLAAGVAWGAYTLRGRGVRDPAGATAANFALAVPLALCLVIASAGTLHLTARGAALAAASGAVASGVGYVLWYTVVPALGAARAAAVQLAVPAMVPLAAAGLLGEAITPRLLAAGTAILAGVALAIAPAARGGAFTRALSSRAGSAVERPPR” here?
Answer: failed

Question: For “MDHLKHLQQLQNIERIVLSGIVLANHKIEEVHSVLEPSDFYYPPNGLFFEIALKLHEEDCPIDENFIRQKMPKDKQIKEEDLVAIFAASPIDNIEAYVEEIKNASIKRKLFGLANTIREQALESAQKSSDILGAVEREVYALLNGSTIEGFRNIKEVLESAMDLITENQRKGSLEVTGIPTGFVQLDNYTSGFNKGSLVIIGARPSMGKTSLMMNMVLSALNDDRGVAVFSLEMSAEQLALRALSDLTSINMHDLESGRLDDDQWENLAKCFDHLSQKKLFFYDKSYVRIEQIRLQLRKLKSQHKELGIAFIDYLQLMSGSKATKERHEQIAEISRELKTLARELEIPIIALVQLNRSLENRDDKRPILSDIKDSGGIEQDADIVLFLYRGYIYQMRAEDNKIDKLKKEGKIEEAQELYLKVNEERRIHKQNGSIEEAEIIVAKNRNGATGTVYTRFNAPFTRYEDMPIDSHLEEGQETKVDYDIVTT”, which protein production is on record?
Answer: not failed

Question: For “MDHLLSGLATRLGQGPFVADRTGSYHLRIDGQSVLLLRQGDDLLLESPLEHAPLDPQRDQQGLLRALLSRVASWSRRYPQAIVLDADGRLLLQARLGLDGLDPERLERALAAQVGLLEALAPELEPLPRGLPPQAPVWRP”, which protein production is on record?
Answer: failed

Question: For “MDHQLSQHDIFISQDGQLQLTVAVDTETVWLTQAEICVLFDRERSVITKHINNVFKEGELERDSVCAIFARTADDGKTYQTQYFNLDVIISVGYRVKSKRGVQFRQWATNTLKQHLLQGYTLNQQRLVQRGIEFNQALALLSKTLTNQALINPDGQAVVNVIAEYARSWSLLQGYDEQSLTEITHKQQQMQPLALDEVLAAIAALKTNLIAKGEATDLFAQLRGNGLASSIATIEQGFGGEWFYPNVASRAAHLLYFIIKNHPFADGNKRTGSFLFLWYLQQNQHLLAKPVSEQINDTTLVALALLVAESLPDQKELMIRLIEHFILLKDSELEHHHHHH”, which protein production is on record?
Answer: not failed

Question: Which protein production does the source give for “MDIAELINHPELLLLVLAPLFFVCILLEWYLGDRRQKLPVSARYHAKEVLCNFSLAAMHQGTDILAGLLIAKLYLAIFGWKLFDIQMGPFTFVLLMVAQDFCYYWFHRASHRIRWMWAAHVVHHSSENMNFSTAFRQSLMYPFAGMWVFWLPLVILGFDPNWVVFVVLLSLGLQFFVHTQAVRKLGPLEWLFNTPSHHRVHHGRNPQYIDKNYAGILIIWDKLFGTFVPEEETVIYGITKPVNSFNPLKVTFSEWHDMFREVTTKGLSLSKRLGILFAPPASYQKDD” here?
Answer: failed

Question: For “MDIELPGFDIERELGEGAMATVYLATQRSLQRKVALKVMAAALAADPSFAERFLREGRTLARLSHPNTVTIHDIGNVGSCYYMAMEYLPNGTLKERIQQGLDPEQGLAYVRQVAAALGYAHSQGLVHRDVKPANILFRADGTAVLSDFGIAKSIEDNTQFTQVGFAVGTPSYMSPEQARGQEIDGRADLYALGVVLYEILTGKLPYNGKDSLSTALAHLTEPLPELPIEQGRYQDILRQLLAKDPAERFPTAGALIAALDRLAPSALEATQIRPLATPQGSPRASNPPPAEPAPLPPADLGGLQPVSIQLPPVTPSAGGATPPPPPPSQAAKPPSPPPPPLPPAKPRAGGSRTPLIAAAAAAVLLAIGGGAWWLLGSGDAPSAADPAPLGQTPADKPQQQTPVADAEQDGGERPLLMPGKKTLFQRVLTKPGAAISAEAGGPPRAGAVPAFSVLYVYARKQVGGSPWLRVGASSNGEGDGWLPASAVSDWKQSLVLKFTERSGRAPVMFLNSAEQVERLLGDTRAARDTLTQAVDHKGDPQVVAVEPNDRAIPQDQFYLLPIFDSKESFDADGQPAQLLEVASIDPGGSAAAPQAPGQAGQGGASGAASDTFRTGIVLVVDTSVSMQPYIDRVREVIDGLQRQIGERGDLDKVSFGLVGFRNNTDKTPGLEYVSKTLVPLQPGNDAQRFAELSSQVRATDVSSHSFNEDAFAGIMQAVDEMDWSPYAGRVVLLVTDAGALRKNDPLGRTQMNEAEVRQAALRKGVKIYALHLRTPAGKNNHGYAEQQYRSLTADANPKIADLYIPVAGGEVNAFGNTVKEIGTVFADLVHDAGNRKPQAPRFDAAPSVASKSAAIGYAMQMEFLGRRDPVRAPQVVTAWTADRDLTNPALPAFQVCVLLSKLQLNELQQSLKLIVDAAKRTQTSPKDFFQEIASASAYMSRDPAQLVKGSNLAQSGVLGEYLEGLPYRSKSLNMTQDLWLSLSVAEQQDFIDELESKIRLYETFHNDVANWVRFGDADAGDALYRVPLSTLP”, which protein production is on record?
Answer: failed

Question: For “MDIFLVIGIITGLLAVVVGMIVKGANVAVLLNPAAAIIIIVGTSAAVMNSFPKNEFTNIPKVFKSLMRGKSKEDPVEIINQIVDMAQETRKNGLLSLEGKIHSIDNEFLKTGLEMVVDGVDPQHIAEVLEMEIESTEERHRGGALIFTTAGGAAPTLGVLGAVVGLIGALGNLNDTEKLGHMIAGAFVATLYGIFFGYVICHPFASRLKRKSLEEINVMRIITEGILDIQSGNNPKSIEKKLIGTLSPKQRQSIQSKGE”, which protein production is on record?
Answer: failed

Question: For “MDIFLVVLVLLTIIAISNIVNRFIPFIPVPLIQVALGILAASFPQGLHFELNTELFFVLFIAPLLFNDGKRTPRAELWNLRAPILLLALGLVFATVIVGGYTIHWMIPAIPLAAAFGLAAILSPTDVVAVSALSGRVKMPKGILRLLEGEGLMNDASGLVAFKFAIAAAVTGAFSLAQAAVSFVFISLGGLLCGVVISFLIIRFRLFLRRLGMQDVTMHMLIQILTPFVIYLAAEEIGVSGILAVVAGGITHAVEQDRLESTMIKLQIVSSSTWNIILFILNGLVFVILGTQIPDVISVIFNDTAISNMKVIGYILVITFTLMLLRFLWVLFFWNGKWFFNKDQNIYKPGLRSTLLISISGVRGAVTLAGSFSIPYFLEDGTPFPERNLILFLAAGVILCTLVIATVVLPILTEKEEEDEERNKKLLTARRKLIKTALQTIKEDMNETNKTASLAVIAEYNEKMKNLRFQQYTSSNRIKKHERKVRAQGVKAEQEALMKMLERGDIPEETANVLQERFNELEILYANPFKVGLSKTRLKRLMYWIFFGEHKKPEMSILNEAGLIRATRVKTAKAAIEYLEKHKTDEHKEVFLSVITFYKQLIFRLEHSHHELKSSAHFENQKLEVKLKAVQAIRNEIQTLFEEREISRDISHELRQYINDVEAAMLEGGE”, which protein production is on record?
Answer: failed

Question: Which protein production does the source give for “MDIGFLVFGLAGLLTLVCFMPPLAGRLKLPYSVLLALVGCLLGIGVHLHGWAPPVLGDLLDTIEHFEISSETFLMVFLPVLLFETALSMNVRRLIDDIGPILMMAIVAVVVCTLVVGFAVDAVSSYGLIVCLLLGAIVATTDPAAVVGIFREVGAPKRLTTLVEGESLFNDAASIALYSVLLAALGGSGELSVGAVFNDFIFHFVGGGLAGFLMGRLACALFAWLRGFPTAEITLTLTLAYLSFFISEHYLGVSGVVATVIAGLVVGSTGRTRMSPTTFEFLSSAWGQFGFWANSLIFLFAAMLIPKLMAEADWQELLLVLVVFAATLAARAIVVFGLLPLLRVARIGAEVSNPYKSVMWWGGLRGAVSLALALAVTEQSSVPEQARQFVAVATTGFVLMTLMINGVSLRPLIRMLGLNQLSPVERTIRNQVLAAALEDLQGRTEEIAKVDHVNPEARDRIRAVFDASLTSVHDGQVGQMTLDQRVAVGLSIVARREEEMFFDILKAQIVDWRLAEGLLARAERLEDAVRAGGLAGFEAGIVADVRYSRLFRMALRTHYMFGFQGWLARELGKRFASLLTKRSVARDLMKFAREQVAPLLGEEAADRIIAAHQRRLDLIENALQALTLQYPSYSLWLQESHLGRVARELERRRYRDMLEQFLISGEVYADLMAQLKARWQHIDKHPPLDIELGSAELVKRVPLFEGLSQDSLRAICRLLKPRLALPDQHILTEGRHGQEMCIVASGAVVVHLPDHTTIELGSGEFFGELALLGEEQLVPDVTSLGYSKLLMLSARDFHALLARDEHLRERIQTVAKQRMRAIEVWKQYSQAAAAAAASTASEDSAPA” here?
Answer: failed

Question: For “MDIKELKEIATKSREKQTKIRIRCCSAAGCLSSEGETVKKNLTTAIAAAGLEEKVEVCGVGCMKFCGRGPLVAVDDRNQLYEFVTPDQVGDIVKKLQKPDAVAETGLISGDPHHPFY”, which protein production is on record?
Answer: failed

Question: Which protein production does the source give for “MDILKSEILRKRQLVEDRNLLVENKKYFKRSELAKKEEEAYFERCGYKIQPKEEDQKPLTSSNPVLELELAEEKLPMTLSRQEVIRRLRERGEPIRLFGETDYDAFQRLRKIEILTPEVNKGLRNDLKAALDKIDQQYLNEIVGGQEPGEEDTQNDLKVHEENTTIEELEALGESLGKGDDHKDMDIITKFLKFLLGVWAKELNAREDYVKRSVQGKLNSATQKQTESYLRPLFRKLRKRNLPADIKESITDIIKFMLQREYVKANDAYLQMAIGNAPWPIGVTMVGIHARTGREKIFSKHVAHVLNDETQRKYIQGLKRLMTICQKHFPTDPSKCVEYNAL” here?
Answer: failed

Question: Which protein production does the source give for “MDIRTITSSDYEMVTSVLNEWWGGRQLKEKLPRLFFEHFQDTSFITSEHNSMTGFLIGFQSQSDPETAYIHFSGVHPDFRKMQIGKQLYDVFIETVKQRGCTRVKCVTSPVNKVSIAYHTKLGFDIEKGTKTVNGISVFANYDGPGQDRVLFVKNI” here?
Answer: not failed

Question: Which protein production does the source give for “MDISMKQSKRNLWWSVCAGLLFCSWGCSSQVSDKPVTLETLLDEMVSVEEQALYPVPSYTCRQESSYDRASVSPDSAGWFANSDGFGIKRVDTVAGRIEKVMFDEVGPGAITRIWITTIDKRGTWRFYFDGSDQPGWIIPAYDLMRINVPGLGKGMLQAHTSYTPEGKGGNTLFLPIPYARGCKVTFEDEPGVNPTPKYYHINFRKYPEGTQVETFSKEVVERAAQKIAEVDNRLLQPVAGRKGEILREEKSILPSDSLVIPLPAGENAVYEVKFNIRIDNPEQYAQLMRELVFSAGFDGKQTVWVPLSDFSGGGMGAPKVDSWYLTSDGKGNISSRWLMPYQKDGVLKVLNLSSRSVAATMEVNVAPLKWNKDRSLYFYASWRQENGIYIHDKPEEADQCVEWNFATLKGRGVYKGDLLSLYNHAPLWYGEGDEKIWVDDDTFPSHFGTGTEDYYNSSWAPVVPFYTPFGGAPRADLESSHGYNAFYRTRHLDGIPFNKSFKFDIEMLGWKRGEADYATTIYWYGDPEAQVFGTSGIEEARRQLLPAVEASADLEHHHHHH” here?
Answer: not failed

Question: For “MDISSTEIWDAIRRNSFLLYYQPKVDAKTNELIGFEGLIRLKTATAILAPADFFEDIALLNATREMQDFVAETAIEQINQLGGRFSISINIPAHYVVSSNYMTFLYDYVKEHLKYPECLEIEIIERGEITELAVADKNLRKIKKLGVTVSMDDFGKGYSSLAYLRSLPIDIVKTDMSFIALLKTDRKQQIIIQAIVNLCHDLGGKVVTEGVEDIEQVKTLREMKVDYFQGYYFSRPLPMKEIKEKYSIV”, which protein production is on record?
Answer: failed

Question: Which protein production does the source give for “MDITNIKEMNYEEVFSITITVDKPILIGQDDIVGRRQLIPIISGKVSGNNFNGKVLPGGIDSQIVRPDGKCELSARYAIRLDDGAAIYIENNGIRTVPDEYIEAVKSGEFVDPNAYYFRTIPTFETYSPKYKWMMNHIFVCCASRLPENVLLKFYKIS” here?
Answer: not failed

Question: Which protein production does the source give for “MDIVISGGTGLIGRAITEIQGNTYNVITRGPSRTDGNINLVNWNDLRKIRHCDVVINLAGYNIGSKRWNPKIKEEIIRSRIESTRRMVEFISSLDSKPEAFLSGSAIGYYGYGENTVFDENSPPGTGFLAELANAWEDEALKASRYTRTVILRTSNVLSSSGGFLARIMNSRSRRVYYFGDGDQPVSWIHIKDYVNAVKFLMENKDISGPVNMAAPSPVSFADLAHAIAREKGYKEMKIPEFIGKLILGSEMYRELMSGQRVAPKKLTGSGFSFQYPDLESAIKNLLEHHHHHH” here?
Answer: failed
